Test results: paper PMC9780815

Target: GFP-BMB1 (Hibiscus green spot virus)
Experiment: FRET or BRET

What does the source list for BMB2-mRFP (natural protein)?
FRET efficiency: 36%; reduction of the GFP excited-state lifetime (FLIM) against the controls: 0.9 ns
